{
  "source": "paper doi:10.1101/2020.05.24.113654",
  "about": "(bioRxiv, 2020)",
  "molecular_target": "T1, Cre^Cat (interdomain linker and C-terminal catalytic domain of Cre recombinase, residues 127-343) (UniProt P06956 127-343)",
  "T1 sequence (looked up)": "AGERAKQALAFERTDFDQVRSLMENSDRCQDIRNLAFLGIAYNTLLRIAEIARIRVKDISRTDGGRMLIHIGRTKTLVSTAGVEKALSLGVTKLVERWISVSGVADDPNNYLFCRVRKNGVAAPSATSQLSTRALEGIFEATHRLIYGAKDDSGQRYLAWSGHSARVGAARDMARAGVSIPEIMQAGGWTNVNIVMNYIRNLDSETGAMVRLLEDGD",
  "assay": "intermolecular PRE-NMR",
  "data": [
    {"binder": "MTSL tagged-Cre^Cat C155A/C240A/D343C (domain or fragment, UniProt P06956 127-343, looked up, MTSL paramagnetic spin probe on C-terminal residue C343) AGERAKQALAFERTDFDQVRSLMENSDRAQDIRNLAFLGIAYNTLLRIAEIARIRVKDISRTDGGRMLIHIGRTKTLVSTAGVEKALSLGVTKLVERWISVSGVADDPNNYLFARVRKNGVAAPSATSQLSTRALEGIFEATHRLIYGAKDDSGQRYLAWSGHSARVGAARDMARAGVSIPEIMQAGGWTNVNIVMNYIRNLDSETGAMVRLLEDGC", "values": [
      {"measurement": "binding result", "value": "binds"}
    ]}
  ]
}
